Laboratory results: patent US20030166587A1
Non-standard residues stand in square brackets, D forms with d. No end group written: not given here. pS = N[C@@H](COP(=O)(O)O)C(=O)O

B1: pp21, doubly phosphorylated IκBα peptide (peptide)
peptide: CKKERLLDDRHD[pS]GLD[pS]MKDEE
B2: pp19, doubly phosphorylated IκBα peptide (peptide)
peptide: CERLLDDRHD[pS]GLD[pS]MKDEE

Target: specific IκB E3 ubiquitin ligase activity of HeLa extract
Test: cell-based or functional assay

| Binder | IC50 of inhibition of pIκBα ubiquitination (in vitro ubiquitination assay in HeLa extract) | TNFα-stimulated NF-κB activation (nuclear p65 staining) abolished, percent of microinjected HeLa cells | inhibition of E-selectin expression, percent of microinjected HUVEC |
| --- | --- | --- | --- |
| B1 | 5 µM | 50 to 70% | 70 to 80% |
| B2 | 5 µM | – | – |
